Among the targets are SARS-CoV-2 XBB.1 RBD (SARS-CoV-2 Omicron XBB.1, strain); SARS-CoV-2 BA.1 RBD (SARS-CoV-2, UniProt P0DTC2); SARS-CoV-2 BA.2 RBD (SARS-CoV-2 Omicron BA.2, strain); SARS-CoV-2 BQ.1.1 RBD (SARS-CoV-2, UniProt P0DTC2); SARS-CoV-2 XBB.1.5 RBD (SARS-CoV-2, UniProt P0DTC2); SARS-CoV-2 CH.1.1 RBD (SARS-CoV-2 Omicron CH.1.1, strain); SARS-CoV-2 BA.2.75.2 RBD (SARS-CoV-2 Omicron BA.2.75.2, strain).

Holding throughout (experiment): SPR
Holding throughout (settings): both partners purified

These results are taken from paper PMC11645210 (Cell, 2024).

As usually defined, the Kd is the constant that tells how readily two partners part at equilibrium. Low values mean tighter binding, high ones weaker binding. The term koff denotes the rate constant with which the complex falls apart. Low readings indicate a long-lived complex, high ones a short-lived complex. The kon is a measure of how fast the partners come together. High values mean fast association, low ones slow association.

B1: VIR-7229 Fab fragment (Fab, V domains shown)
VH: EVQLVESGGSVVQPGRALRLSCAASGITFSSFGMYWVRQAPGKGLEWLGYIAYDGSDTYYADSVKGRFTISRDNSKNTLYLQMNSLRIEDTAVYYCAKDYYPLLSYYYGLDVWGQGTTVTVSS
VL: QSVLTQPRSVSGSPGQSVTISCTGTSSDVGAYNYVSWYQQHPGKAPKFMIYDVDQRPSGVPDRFSGSKSGNTASLIISGLQAEDEADYYCSSYAGSYIWVFGGGTQLTVL
notes: source: ExpiCHO (IgG1); Fab by fragmentation of the IgG with the FabLACTICA Fab kit
On to B1, for which the Kd came out at 0.21 nM with SARS-CoV-2 XBB.1 RBD; 0.434 nM in the experiment with SARS-CoV-2 BA.1 RBD; 0.396 nM with SARS-CoV-2 BA.2 RBD; 0.0993 nM in the experiment with SARS-CoV-2 BQ.1.1 RBD; 0.06 nM with SARS-CoV-2 XBB.1.5 RBD; 0.12 nM with SARS-CoV-2 CH.1.1 RBD. For the same molecule, in the experiment with SARS-CoV-2 BA.2.75.2 RBD, the affinity, expressed as Kd, was 0.284 nM. Also, the koff in the experiment with SARS-CoV-2 XBB.1 RBD was found to be 0.000108 s⁻¹; with SARS-CoV-2 BA.1 RBD it was 0.000124 s⁻¹; with SARS-CoV-2 BA.2 RBD it was 9.72e-05 s⁻¹; with SARS-CoV-2 BQ.1.1 RBD it was 5.63e-05 s⁻¹; in the experiment with SARS-CoV-2 XBB.1.5 RBD, 4.09e-05 s⁻¹; with SARS-CoV-2 CH.1.1 RBD, 6.63e-05 s⁻¹. In the experiment with SARS-CoV-2 BA.2.75.2 RBD, the koff turned out to be 0.000117 s⁻¹. Also, the kon with SARS-CoV-2 XBB.1 RBD stood at 524000 M⁻¹ s⁻¹; with SARS-CoV-2 BA.1 RBD, 285000 M⁻¹ s⁻¹; with SARS-CoV-2 BA.2 RBD it was 245000 M⁻¹ s⁻¹; in the experiment with SARS-CoV-2 BQ.1.1 RBD, 582000 M⁻¹ s⁻¹; in the experiment with SARS-CoV-2 XBB.1.5 RBD, 752000 M⁻¹ s⁻¹; with SARS-CoV-2 CH.1.1 RBD, 586000 M⁻¹ s⁻¹. The molecule also came in with a kon with SARS-CoV-2 BA.2.75.2 RBD of 431000 M⁻¹ s⁻¹.
